The source of these data is paper PMC9544338.

What all share (experiment): co-IP; N2a cells cotransfected with His6-RGS19 and Gαo-GFP (C-terminally tagged) variants, treated with 1 μM ZPT for 3 hours before IP of Gαo with a nanobody against GFP; Western blot; fold against DMSO-treated cells
On the technique in general: Immunoblotting shows a protein as a band on a membrane.

Test [1] deals with Gαo[G203R]-GFP (C-terminally tagged) (human), P09471.
Test [2] deals with Gαo[E246K]-GFP (C-terminally tagged) (human), P09471. The note with it: remark: other sources report otherwise.
For test [3], the target named is Gαo[R209C]-GFP (C-terminally tagged) (human), P09471. The note with it: remark: other sources report otherwise.

B1: His6-RGS19, P49795 1-217 (other documents disagree on this pair)
chain: MPTPHEAEKQITGPEEADRPPSMSSHDTASPAAPSRNPCCLCWCCCCSCSWNQERRRAWQASRESKLQPLPSCEVCATPSPEEVQSWAQSFDKLMHSPAGRSVFRAFLRTEYSEENMLFWLACEELKAEANQHVVDEKARLIYEDYVSILSPKEVSLDSRVREGINKKMQEPSAHTFDDAQLQIYTLMHRDSYPRFLSSPTYRALLLQGPSQSSSEA
Consider B1, for which the values for the fold increase of the interaction by ZPT over DMSO in test [1], in test [2] and in test [3] were 20 fold, 12 fold and 6 fold, respectively.
